# Test results from paper doi:10.1101/2021.12.14.472590 (bioRxiv, 2021).
# B1: ADAP1-381 (N-terminal intrinsically disordered fragment of ADAP) (domain or fragment)
# chain: MAKYNTGGNPTEDVSVNSRPFRVTGPNSSSGIQARKNLFNNQGNASPPAGPSNVPKFGSPKPPVAVKPSSEEKPDKEPKPPFLKPTGAGQRFGTPASLTTRDPEAKVGFLKPVGPKPINLPKEDSKPTFPWPPGNKPSLHSVNQDHDLKPLGPKSGPTPPTSENEQKQAFPKLTGVKGKFMSASQDLEPKPLFPKPAFGQKPPLSTENSHEDESPMKNVSSSKGSPAPLGVRSKSGPLKPAREDSENKDHAGEISSLPFPGVVLKPAASRGGPGLSKNGEEKKEDRKIDAAKNTFQSKINQEELASGTPPARFPKAPSKLTVGGPWGQSQEKEKGDKNSATPKQKPLPPLFTLGPPPPKPNRPPNVDLTKFHKTSSGNSTS
# Target: human β-actin (recombinant G-actin) (human, UniProt P60709 1-375)
# Experiment: NMR titration
binder,measurement,value
B1,binding result,binds
